Assay [1] has as its target T1, recombinant OX40 protein with a His tag (Homo sapiens, UniProt P43489).
T1 construct: His tag; purchased Sino Biological 10481-H08H
T1 sequence (P43489 29-277): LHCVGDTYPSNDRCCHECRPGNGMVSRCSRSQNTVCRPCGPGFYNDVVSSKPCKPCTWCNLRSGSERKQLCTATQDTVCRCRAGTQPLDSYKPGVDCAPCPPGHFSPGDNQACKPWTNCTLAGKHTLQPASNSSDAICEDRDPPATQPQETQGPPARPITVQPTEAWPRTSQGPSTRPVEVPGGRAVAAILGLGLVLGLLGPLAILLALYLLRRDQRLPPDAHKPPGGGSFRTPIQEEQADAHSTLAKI
The experiment in a line: Binding kinetics and affinity of anti-OX40 antibodies by SPR (BIAcore T-200). From the text:
The anti-OX40 antibodies were characterized for their binding kinetics and affinity by SPR assays using BIAcore™ T-200 (GE Life Sciences). Briefly, anti-human IgG antibody was immobilized on an activated CM5 biosensorchip (Cat: BR100530, GE Life Sciences). An antibody with human IgG Fc region was flowed over the chip surface and captured by anti-human IgG antibody. Then a serial dilution of recombinant OX40 protein with a His tag (Cat: 10481-H08H, Sino Biological) was flowed over the chip surface and changes in surface plasmon resonance signals were analyzed to calculate the association rates (ka) and dissociation rates (kd) by using the one-to-one Langmuir binding model (BIA Evaluation Software, GE Life Sciences). The equilibrium dissociation constant (KD) was calculated as the ratio kd/ka.

The test system of assay [2] is EMT-6 cells. The experiment in a line: EMT-6 syngeneic breast cancer model in BALB/c mice. It is filed as in vivo, mouse. How it is done:
EMT-6 cells are of murine breast cancer origin. Female BALB/c mice were implanted intramammary with 5×10^4 EMT-6 cells per 100 μL PBS mice in the second right papilla. After inoculation, mice were randomized into 4 groups with 25 animals in each group according to inoculation order.
The mice were treated with vehicle (0.5% MC), OX86 (a murine specific anti-OX40 antibody), Compound 1 (PI3Kdelta inhibitor), and the combination of OX86 and Compound 1, respectively. OX86 was given at 0.4 mg/kg once per week (QW) by intraperitoneal (i.p.) injection, and Compound 1 was administered at 30 mg/kg twice per day (BID) by oral gavage (p.o.). Tumor volume was determined twice weekly and tumor growth inhibition was determined using the formula described in Example 14 above.

Assay [3] has as its target T2, interaction between OX40 and OX40 ligand (Mus musculus, UniProt P47741).
T2 sequence (P47741 20-272): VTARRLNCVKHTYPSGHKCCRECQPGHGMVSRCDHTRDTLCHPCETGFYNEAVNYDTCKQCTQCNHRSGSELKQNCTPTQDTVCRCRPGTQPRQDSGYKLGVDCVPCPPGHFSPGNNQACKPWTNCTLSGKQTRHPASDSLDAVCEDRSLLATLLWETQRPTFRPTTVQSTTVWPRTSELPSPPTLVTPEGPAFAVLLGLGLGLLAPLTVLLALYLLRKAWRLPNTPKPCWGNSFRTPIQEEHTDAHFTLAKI
T2 sequence (P43488 1-198 partner): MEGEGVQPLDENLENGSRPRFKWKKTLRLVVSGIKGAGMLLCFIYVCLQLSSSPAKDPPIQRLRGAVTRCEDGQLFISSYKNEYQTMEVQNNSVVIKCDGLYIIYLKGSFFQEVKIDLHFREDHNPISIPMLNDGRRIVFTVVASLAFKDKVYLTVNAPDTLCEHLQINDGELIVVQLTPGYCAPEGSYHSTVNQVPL
The note with it: reported in the scientific literature; cited from earlier work.

Assay [4] relates to A20 cells. In words: A20 syngeneic B cell lymphoma model in BALB/c mice. The assay is classed as in vivo, mouse. The note with it: Compound 1 10 mg/kg p.o. How it is done: A20 cells are of B cell lymphoma origin. Female BALB/c mice were subcutaneously implanted with 1×10^5 A20 cells in 150 μL PBS mice in the right flank. After inoculation, mice were randomized into 4 groups with 25 animals in each group according to inoculation order. The mice were treated with vehicle (0.5% MC), OX86 (a murine specific anti-OX40 antibody), Compound 1, and the combination of OX86 and Compound 1. OX86 was given at 0.4 mg/kg once a week by intraperitoneal injection, and Compound 1 was administered at 10 mg/kg twice a day by oral gavage. Tumor volume was determined twice weekly and the TGI calculated as described above.

The mark [5] stands for this setting: OX86 0.4 mg/kg QW i.p., Compound 1 30 mg/kg BID p.o.

B1: 445-1: humanized anti-OX40 antibody, human IgG1 wt, VH SEQ ID NO: 14, VL SEQ ID NO: 16 (antibody, V domains shown)
VH: QVQLVQSGAEVKKPGSSVKVSCKASGYKFTSYIIHWVRQAPGQGLEWMGYINPYNDGTRYNQKFQGRVTLTSDKSTSTAYMELSSLRSEDTAVYYCARGYYGSSYAMDYWGQGTTVTVSS
VL: DIQMTQSPSSLSASVGDRVTITCSASQGISNYLNWYQQKPGKAIKLLIYDTSTLYSGVPSRFSGSGSGTDYTLTISSLQPEDFATYYCQQYSKLPYTFGGGTKVEIK
modifications: human IgG1 constant regions; 445-1 VH pro; 445-1 VK pro
On to B1, for which, in assay [1] (Mean), the KA came out at 5.9e+07 M⁻¹. Besides, in assay [1] (Test 1), the KA worked out at 5.6e+07 M⁻¹, the ka worked out at 156000 M⁻¹ s⁻¹ and the kd was determined as 0.00277 s⁻¹. Moreover, in assay [1] (Test 2), the KA was 6.1e+07 M⁻¹, the ka was found to be 237000 M⁻¹ s⁻¹ and the kd stood at 0.00389 s⁻¹.

B2: 445-2: humanized anti-OX40 antibody, VH SEQ ID NO: 20, VL SEQ ID NO: 22 (antibody, V domains shown)
VH: QVQLVQSGAEVKKPGSSVKVSCKASGYKFTSYIIHWVRQAPGQGLEWMGYINPYNEGTRYAQKFQGRVTLTADKSTSTAYMELSSLRSEDTAVYYCARGYYGSSYAMDYWGQGTTVTVSS
VL: DIQMTQSPSSLSASVGDRVTITCSASQGISNYLNWYQQKPGKAIKLLIYDASTLYSGVPSRFSGSGSGTDFTLTISSLQPEDFATYYCQQYSKLPYTFGGGTKVEIK
modifications: 445-2 VH pro; 445-2 VK pro
Turning to B2, the results for the KA in assay [1] (Mean), in assay [1] (Test 1) and in assay [1] (Test 2) were 7.5e+07 M⁻¹, 7.1e+07 M⁻¹ and 7.8e+07 M⁻¹, respectively. Also, the ka in assay [1] (Test 1) came to 276000 M⁻¹ s⁻¹; in assay [1] (Test 2), 206000 M⁻¹ s⁻¹. For the same molecule, the kd was 0.0039 s⁻¹ in assay [1] (Test 1) and 0.00264 s⁻¹ in assay [1] (Test 2).

B3: ch445: Mu445 variable domains fused to human IgG1wt/kappa constant regions (antibody, V domains shown)
VH: EVQLQQSGPELVKPGASVKMSCKASGYKFTSYIIHWVKQKPGQGLEWIGYINPYNDGTRYNEKFKGKATLTSDKSSSTAYMEYSSLTSEDSAVYYCARGYYGSSYAMDYWGQGTSVTVSS
VL: DIQMTQTTSSLSASLGDRVTISCSASQGISNYLNWYQQKPDGTIKLLIYDTSTLYSGVPSRFSGSGSGTDYFLTISNLEPEDIATYYCQQYSKLPYTFGGGTKLEKK
For B3, in assay [1] (Mean), the KA turned out to be 1.41e+08 M⁻¹. Besides, in assay [1] (Test 1), the KA was 1.22e+08 M⁻¹, the ka is 174000 M⁻¹ s⁻¹ and the kd was determined as 0.00143 s⁻¹. Also, in assay [1] (Test 2), the KA worked out at 1.59e+08 M⁻¹, the ka was found to be 265000 M⁻¹ s⁻¹ and the kd is 0.00167 s⁻¹.

B4: OX86: rat anti-mouse OX40 antibody (WO2016/057667) engineered with mouse IgG2a constant regions; VH SEQ ID NO: 32, VL SEQ ID NO: 33 (antibody, V domains shown)
VH: QVQLKESGPGLVQPSQTLSLTCTVSGFSLTGYNLHWVRQPPGKGLEWMGRMRYDGDTYYNSVLKSRLSISRDTSKNQVFLKMNSLQTDDTAIYYCTRDGRGDSFDYWGQGVMVTVSS
VL: DIVMTQGALPNPVPSGESASITCRSSQSLVYKDGQTYLNWFLQRPGQSPQLLTYWMSTRASGVSDRFSGSGSGTYFTLKISRVRAEDAGVYYCQQVREYPFTFGSGTKLEIK
modifications: mouse IgG2a constant regions
On to B4, for which, in assay [2] (setting [5]), the “Mean Tumor Volume on Day 22 (mean ± SEM)” value worked out at 210.5 ± 43.9 mm^3 and the “Tumor Free Animal” value is 40%. Further, the “TGI on Day 22” value in assay [2] (OX86 0.4 mg/kg QW×4 i.p., Compound 1 30 mg/kg BID×22 p.o.) is listed as 79%. In assay [3], the “Blocking of the interaction between OX40 and OX40 ligand” value is “does not block the interaction between OX40 and OX40 ligand”. In assay [4] (OX86 0.4 mg/kg QW i.p.), the “Mean Tumor Volume on Day 26 (mean ± SEM)” value is listed as 53.4 ± 28.7 mm^3 and the “Tumor Free Animals at Day 47” value is on record as 80%. Besides, in assay [4] (OX86 0.4 mg/kg QW×4 i.p.), the “TGI on Day 26” value came to 93%.
